Reference: US20240025992A1 (Janssen / Centocor, published 2024)

T1: CD3W147, homodimeric CD3εγ-Fc (biotinylated)
T1 construct: also called recombinant CD3; biotinylated CD3W147
T1 chain: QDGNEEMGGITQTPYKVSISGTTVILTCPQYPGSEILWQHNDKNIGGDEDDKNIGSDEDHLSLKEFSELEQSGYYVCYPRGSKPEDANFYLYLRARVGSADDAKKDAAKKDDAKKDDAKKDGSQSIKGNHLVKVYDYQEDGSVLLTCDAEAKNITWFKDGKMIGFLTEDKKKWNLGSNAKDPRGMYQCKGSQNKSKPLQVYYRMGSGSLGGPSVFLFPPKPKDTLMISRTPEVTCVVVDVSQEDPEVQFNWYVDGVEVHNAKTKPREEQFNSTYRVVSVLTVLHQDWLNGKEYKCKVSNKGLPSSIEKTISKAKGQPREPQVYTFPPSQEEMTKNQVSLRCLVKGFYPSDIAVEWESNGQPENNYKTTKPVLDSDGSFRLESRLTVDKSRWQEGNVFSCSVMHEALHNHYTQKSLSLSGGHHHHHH

B1: DL3B575 (Fc fusion)
scFv: DIVMTQSPLSSPVTLGQPASISCRSSQSLVHSDGNTYLNWLQQRPGQPPRLLIYQISNPFSGVPDRFSGSGAGTDFTLKISRVEAEDVGVYYCMQATQFPHTFGPGTKVEIKGGSEGKSSGSGSESKSTGGSQVQLVQSGAEVKKPGSSVKVSCKASGGTLSSYVISWVRQAPGQGLEWMGGIIPIFGTANYAQKFQDRVTITADKSTNTAYMELTSLTSEDTAVYYCARDPFSDLWGRGTMVTVSS
notes: also called DL3B461 scFv-Fc; not shown: wild-type IgG1 Fc domain
B2: CD3W245-HL-E.c. (scFv)
scFv: EVQLVESGGGLVKPGGSLRLSCAASGFTFSRYNMNWVRQAPGKGLEWVSSISTSSNYIYYADSVKGRFTFSRDNAKNSLDLQMSGLRAEDTAIYYCTRGWGPFDYWGQGTLVTVSSGTEGKSSGSGSESKSTDIQMTQSPSSLSASVGDRVTITCRARQSIGTAIHWYQQKPGKAPKLLIKYASESISGVPSRFSGSGSGTDFTLTISSLQPEDFATYYCQQSGSWPYTFGQGTKLEIKGPGGQHHHHHHGAYPYDVPDYAS
notes: Tested as E. coli supernatant; also called CD3W245 scFv-HL; CD3W245 scFv HL expressed in E. coli
B3: DL3W34, human DLL4 ECD (Ser27-Pro524), C-10xHis (ligand)
chain: SGVFQLQLQEFINERGVLASGRPCEPGCRTFFRVCLKHFQAVVSPGPCTFGTVSTPVLGTNSFAVRDDSSGGGRNPLQLPFNFTWPGTFSLIIEAWHAPGDDLRPEALPPDALISKIAIQGSLAVGQNWLLDEQTSTLTRLRYSYRVICSDNYYGDNCSRLCKKRNDHFGHYVCQPDGNLSCLPGWTGEYCQQPICLSGCHEQNGYCSKPAECLCRPGWQGRLCNECIPHNGCRHGTCSTPWQCTCDEGWGGLFCDQDLNYCTHHSPCKNGATCSNSGQRSYTCTCRPGYTGVDCELELSECDSNPCRNGGSCKDQEDGYHCLCPPGYYGLHCEHSTLSCADSPCFNGGSCRERNQGANYACECPPNFTGSNCEKKVDRCTSNPCANGGQCLNRGPSRMCRCRPGFTGTYCELHVSDCARNPCAHGGTCHDLENGLMCTCPAGFSGRRCEVRTSIDACASSPCFNRATCYTDLSTDTFVCNCPYGFVGSRCEFPVGLPHHHHHHHHHH
notes: also called huDLL4; TPP0000494661
B4: DL3W33, Recombinant Human DLL1 ECD (Ser22-Gly540), -DI-C-6xHis (ligand)
chain: SGVFELKLQEFVNKKGLLGNRNCCRGGAGPPPCACRTFFRVCLKHYQASVSPEPPCTYGSAVTPVLGVDSFSLPDGGGADSAFSNPIRFPFGFTWPGTFSLIIEALHTDSPDDLATENPERLISRLATQRHLTVGEEWSQDLHSSGRTDLKYSYRFVCDEHYYGEGCSVFCRPRDDAFGHFTCGERGEKVCNPGWKGPYCTEPICLPGCDEQHGFCDKPGECKCRVGWQGRYCDECIRYPGCLHGTCQQPWQCNCQEGWGGLFCNQDLNYCTHHKPCKNGATCTNTGQGSYTCSCRPGYTGATCELGIDECDPSPCKNGGSCTDLENSYSCTCPPGFYGKICELSAMTCADGPCFNGGRCSDSPDGGYSCRCPVGYSGFNCEKKIDYCSSSPCSNGAKCVDLGDAYLCRCQAGFSGRHCDDNVDDCASSPCANGGTCRDGVNDFSCTCPPGYTGRNCSAPVSRCEHAPCHNGATCHERGHGYVCECARGYGGPNCQFLLPELPPGPAVVDLTEKLEGQGDIHHHHHH
notes: also called huDLL1; TPP000049465
B5: DL3W35, extracellular domain of human DLL3 linked to a C-terminal 6xHis-Tag and a linker (ligand)
chain: AGVFELQIHSFGPGPGPGAPRSPCSARLPCRLFFRVCLKPGLSEEAAESPCALGAALSARGPVYTEQPGAPAPDLPLPDGLLQVPFRDAWPGTFSFIIETWREELGDQIGGPAWSLLARVAGRRRLAAGGPWARDIQRAGAWELRFSYRARCEPPAVGTACTRLCRPRSAPSRCGPGLRPCAPLEDECEAPLVCRAGCSPEHGFCEQPGECRCLEGWTGPLCTVPVSTSSCLSPRGPSSATTGCLVPGPGPCDGNPCANGGSCSETPRSFECTCPRGFYGLRCEVSGVTCADGPCFNGGLCVGGADPDSAYICHCPPGFQGSNCEKRVDRCSLQPCRNGGLCLDLGHALRCRCRAGFAGPRCEHDLDDCAGRACANGGTCVEGGGAHRCSCALGFGGRDCRERADPCAARPCAHGGRCYAHFSGLVCACAPGYMGARCEFPVHPDGASALPAAHPGGGSGGGSGGGSHHHHHH
notes: also called human DLL3 ECD; huDLL3

Tests used:
[1] = molecular target: T2, DL3W36, human DLL3 EGF6 domain+C-term ECD sequence, HSA Fusion and C-term 6 His tag (human); assay: MSD plate binding assay on coated DLL3 domain-HSA fusions
T2 construct: Fusion with the C34S variant of human serum albumin, plus 6xHis; also called EGF-6 and C-terminal fusion domain; EGF6 + Cterm
T2 sequence (chain, as listed by the source limits assumed): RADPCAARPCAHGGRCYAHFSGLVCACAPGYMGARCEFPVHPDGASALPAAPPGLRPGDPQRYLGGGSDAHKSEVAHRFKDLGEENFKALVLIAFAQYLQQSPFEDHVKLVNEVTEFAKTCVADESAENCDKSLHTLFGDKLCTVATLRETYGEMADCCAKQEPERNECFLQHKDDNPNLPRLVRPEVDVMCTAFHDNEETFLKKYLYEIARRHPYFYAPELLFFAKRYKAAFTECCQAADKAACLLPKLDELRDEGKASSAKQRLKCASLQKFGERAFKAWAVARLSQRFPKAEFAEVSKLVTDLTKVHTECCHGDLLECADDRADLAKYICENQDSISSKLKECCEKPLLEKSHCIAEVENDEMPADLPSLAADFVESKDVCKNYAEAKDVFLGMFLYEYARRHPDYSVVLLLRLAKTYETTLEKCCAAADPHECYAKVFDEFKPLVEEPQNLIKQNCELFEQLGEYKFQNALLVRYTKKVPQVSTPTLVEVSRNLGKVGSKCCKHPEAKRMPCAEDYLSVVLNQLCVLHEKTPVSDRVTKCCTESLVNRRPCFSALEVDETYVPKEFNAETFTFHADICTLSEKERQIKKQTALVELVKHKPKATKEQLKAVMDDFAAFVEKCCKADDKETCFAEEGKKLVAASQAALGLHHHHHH

[2] = molecular target: B5; assay: SPR (ProteOn), antibody captured by anti-Fc, DLL3 (DL3W35) titrated
[3] = molecular target: B4; assay: SPR (ProteOn), antibody captured by anti-Fc; DLL1 at 100 nM and 1000 nM
[4] = molecular target: B3; assay: SPR (ProteOn), antibody captured by anti-Fc; DLL4 at 100 nM and 1000 nM
[5] = molecular target: T1, CD3W147, homodimeric CD3εγ-Fc; assay: ELISA, biotinylated CD3W147 immobilized, scFv in E. coli supernatant
DL3B574 [6] = molecular target: T3, DL3B574; assay: SPR (ProteOn), antibody captured by anti-Fc; DLL4 at 100 nM and 1000 nM
T3 construct: also called DL3B450 scFv-Fc; not shown: wild-type IgG1 Fc domain

DL3B574 [7] = molecular target: T3, DL3B574; assay: SPR (ProteOn), antibody captured by anti-Fc; DLL1 at 100 nM and 1000 nM
DL3B574 [8] = molecular target: T3, DL3B574; assay: SPR (ProteOn), antibody captured by anti-Fc, DLL3 (DL3W35) titrated

In the case of B1, the binding result [1] is reported as “binds”, the Kd [2] is reported as 0.31 nM and the binding result [3] is reported as “no binding (tested: 1000 nM)”. B1: no binding (tested: 1000 nM) [4].

B2: binds [5].

B3: no binding (tested: 1000 nM) (DL3B574 [6]).

B4: no binding (tested: 1000 nM) (DL3B574 [7]).

B5 was tested, and the Kd (DL3B574 [8]) was 2.37 nM.
